In publication PMC7226732 (2020) one finds ratio to parent data, which are given here for 1 variant.

B1: V5-Cx40 (wild type) [rat] / GFP-LC3B (expressed in HEK293A cells) [not stated (human cDNA cloned; a plasmid from Dr. Yoshimori also named)] (parent complex)
chain 1: MGDWSFLGEFLEEVHKHSTVIGKVWLTVLFIFRMLVLGTAAESSWGDEQADFRCDTIQPGCQNVCYDQAFPISHIRYWVLQIIFVSTPSLVYMGHAMHTVRMQEKQKLREAEKAKEAGGTGTYEYLAEKAELSCWKEVNGKIVLQGTLLNTYVCTILIRTAMEVAFMVGQYLLYGIFLDTLHVCRRSPCPHPVNCYVSRPTEKNVFIVFMMAVAGLSLFLSLAELYHLGWKKIRQRLAKSRQGDKHQLLGPSTSLVQGLTPPPDFNQCLKNSPDEKFFSDFSNNMGSRKNPDPLATEEVPNQEQIPEEGFIHTQYGQKPEQPSGASAGHRFPQGYHSDKRRLSKASSKARSDDLSV
chain 2: not shown

The variants in this experiment derive from B1. Description: co-immunoprecipitation (IP: V5) and Western blot quantification; HEK293A cell lysates; read off a plot.
In the case of chain 1 W4A, chain 1 L7A, the ratio to parent was about 1.9.
